The values below come from PMC4851294 (PLoS ONE, 2016).

The subject of one data set is C=C(OP(=O)(O)O)C(=O)O. The data set is described as follows: purified protein.
The target in data set [1] is T1, 3-deoxy-D-arabino-heptulosonate 7-phosphate synthase (MtuDAH7PS) (Mycobacterium tuberculosis, UniProt O53512).
T1 construct: gene aroG; chain length 464 residues, homotetramer
Nature of the data set: X-ray crystal structure (with D/L-Trp). Type of data set: binding.

T1 sequence (O53512 whole entry): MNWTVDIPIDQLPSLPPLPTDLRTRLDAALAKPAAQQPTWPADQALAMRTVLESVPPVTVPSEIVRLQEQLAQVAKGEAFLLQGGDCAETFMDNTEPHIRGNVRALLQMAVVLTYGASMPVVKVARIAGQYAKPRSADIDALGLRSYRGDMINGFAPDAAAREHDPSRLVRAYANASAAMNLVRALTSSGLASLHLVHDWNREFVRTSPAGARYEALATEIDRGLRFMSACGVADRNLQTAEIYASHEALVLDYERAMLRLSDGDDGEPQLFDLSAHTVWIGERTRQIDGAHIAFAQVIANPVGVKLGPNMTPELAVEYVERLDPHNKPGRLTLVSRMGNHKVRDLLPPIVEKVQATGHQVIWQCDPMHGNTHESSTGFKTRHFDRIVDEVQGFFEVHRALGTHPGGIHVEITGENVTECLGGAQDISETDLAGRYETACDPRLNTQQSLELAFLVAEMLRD

As usually defined, the Km is the substrate concentration at which the rate is half of its maximum. As a reminder, the kcat is the maximal rate divided by the concentration of active sites. As a reminder, the kcat/Km is the turnover number divided by the Michaelis constant. Regarding “3-deoxy-D-arabino-heptulosonate 7-phosphate synthase (MtuDAH7PS) (Mycobacterium tuberculosis H37Rv)”, in the data set with C=C(OP(=O)(O)O)C(=O)O, the Km was 37 ± 4 µM, the kcat is 4.7 ± 0.1 s⁻¹ and the kcat/Km came out at 130000 ± 20000 M⁻¹ s⁻¹.
Turning to `N[C@@H](Cc1ccccc1)C(=O)O` [L-Phe], the “X-ray crystal structure (with D/L-Trp)” value in data set [1] is “The Phe site in the structure obtained from these soaking conditions is occupied by L-Phe”.
